This note sets out measurements from paper PMC3495302, “The putative K^+ channel subunit AtKCO3 forms stable dimers in Arabidopsis” (Frontiers in Plant Science, 2012).

Usually stoichiometry N stands for the number of molecules, sites or subunits per partner or assembly.

The chains are these.
B1: AtKCO3::GFP (natural protein, Arabidopsis thaliana, UniProt Q9XFR0 1-260, looked up)
chain: MPMTPSEFKNRLLFGSLPRSSSDPTDLQFTEPNVPPSLFSLPEHNDDTATDMAPDQETEQSVSKSIARQALALLVVYLSLGVLIYWLTLDSDNAYQTHPVAVALYFFVVTFCGFLIVHFVVKIGWLDSFCFSVMMVTTVGFGDRAFNTWLGTFLAAVWLLVSTLAVARAFLFLADARADKRNRERAKKVLGESISISQFFAADIDNDGRLSLAEFAIYKLKQMEKITQEDFIQICNQFDKLDRTQSGRITLVDLTTATSV
notes: AtKCO3 of Arabidopsis thaliana, locus AT5G46360; fusion of about 60 kDa; Made with pBI-35S-10H-GFP-JFH1 (Hong et al., 1999); the vector's name may mean further tag residues (surmise); source: transgenic Arabidopsis (CaMV 35S promoter, p35S-KCO3::GFP), in leaf homogenate; not shown: GFP, C-terminal, kept
B2: AtKCO3 (natural protein, Arabidopsis thaliana, UniProt Q9XFR0 1-260, looked up)
chain: MPMTPSEFKNRLLFGSLPRSSSDPTDLQFTEPNVPPSLFSLPEHNDDTATDMAPDQETEQSVSKSIARQALALLVVYLSLGVLIYWLTLDSDNAYQTHPVAVALYFFVVTFCGFLIVHFVVKIGWLDSFCFSVMMVTTVGFGDRAFNTWLGTFLAAVWLLVSTLAVARAFLFLADARADKRNRERAKKVLGESISISQFFAADIDNDGRLSLAEFAIYKLKQMEKITQEDFIQICNQFDKLDRTQSGRITLVDLTTATSV
notes: AtKCO3, putative one-pore K+ channel subunit of Arabidopsis thaliana, locus AT5G46360; cDNA from seedlings of ecotype C24; calculated mass 29 kDa; The AtKCO3 cDNA without tag was put into pBinAR-Kan; also called wild-type protein; source: transgenic Arabidopsis (CaMV 35S promoter, p35S-KCO3), in leaf homogenate
B3: γTIP (natural protein, UniProt P25818 1-251, looked up)
chain: MPIRNIAIGRPDEATRPDALKAALAEFISTLIFVVAGSGSGMAFNKLTENGATTPSGLVAAAVAHAFGLFVAVSVGANISGGHVNPAVTFGAFIGGNITLLRGILYWIAQLLGSVVACLILKFATGGLAVPAFGLSAGVGVLNAFVFEIVMTFGLVYTVYATAIDPKNGSLGTIAPIAIGFIVGANILAGGAFSGASMNPAVAFGPAVVSWTWTNHWVYWAGPLVGGGIAGLIYEVFFINTTHEQLPTTDY
notes: gamma-TIP, tonoplast aquaporin of Arabidopsis; detected with an antibody against its C-terminal nine amino acids; also called tonoplast aquaporin γTIP; source: endogenous, Arabidopsis leaf homogenate or microsomes

This data set concerns the molecule itself. Description: velocity sucrose gradient centrifugation; leaf homogenate in 200 mM NaCl, 0.2% Triton X-100, 50 mM Tris-Cl pH 7.8; linear 5-25% sucrose gradient with 150 mM NaCl, 0.1% Triton X-100, 200,000 x g, 25 h, 4°C; fractions by SDS-PAGE and western blot; mass markers in a further gradient. In general terms: In western blotting, separated proteins are transferred to a membrane and probed.
Consider B1, for which the “stoichiometry N” value is 2.

For B2, the “stoichiometry N” value is 2.

With B3, the “stoichiometry N” value was found to be 4.
